Results from article PMC6748660.

Biological target: full-length mScarlet-tagged tau (2N4R) (human) (UniProt P10636)
Experiment: TIRF microscopy, condensate enrichment assay

Work on “GFP-tagged isolated C-terminus of tau (domain or fragment)” yielded a fold enrichment within mScarlet-2N4R condensates over the lattice of 1.2 fold.
